In the supplement of paper PMC10567573:

B1: HNF4A (parent)
chain: RFSRQCVVDKDKRNQCRYCRLKKC

Variants of: B1
Assay: protein stability index of a GFP-peptide fusion (GPS, HEK-293T) (PSI 1-6); higher = more stable
Settings: c terminus: a fixed tail appended
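Note: lentivirally expressed fusions sorted by FACS into six bins by GFP to DsRed ratio, PSI derived from sequencing read proportions per bin multiplied by bin number.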

With RFSRQCVVVKDKRNQCRYCRLKKC [D9V] as the variant, how does the protein stability index read?
Its protein stability index is 2.33.

For RFSRQCVVQKDKRNQCRYCRLKKC [D9Q], which protein stability index is on record?
The protein stability index was 2.78.

Which protein stability index does the source give for RFSRQCVVWKDKRNQCRYCRLKKC [D9W] here?
The protein stability index was 1.68.

Which protein stability index does the source give for RFSRQCVVHKDKRNQCRYCRLKKC [D9H] here?
The protein stability index was 3.9.

With RFSMQCVVDKDKRNQCRYCRLKKC [R4M] as the variant, how does the protein stability index read?
The protein stability index was 2.91.

Which protein stability index does the source give for RFSPQCVVDKDKRNQCRYCRLKKC [R4P] here?
The protein stability index was 1.54.

Which protein stability index does the source give for RFSDQCVVDKDKRNQCRYCRLKKC [R4D] here?
Its protein stability index is 2.27.

For RFSWQCVVDKDKRNQCRYCRLKKC [R4W], which protein stability index is on record?
Its protein stability index is 2.4.

For RFSGQCVVDKDKRNQCRYCRLKKC [R4G], which protein stability index is on record?
The protein stability index was 2.6.

For RFSSQCVVDKDKRNQCRYCRLKKC [R4S], which protein stability index is on record?
The protein stability index was 2.44.

Which protein stability index does the source give for RFSEQCVVDKDKRNQCRYCRLKKC [R4E] here?
Its protein stability index is 2.6.

For RFSCQCVVDKDKRNQCRYCRLKKC [R4C], which protein stability index is on record?
Its protein stability index is 3.38.

With RFSQQCVVDKDKRNQCRYCRLKKC [R4Q] as the variant, how does the protein stability index read?
The protein stability index was 2.8.

With RFSVQCVVDKDKRNQCRYCRLKKC [R4V] as the variant, how does the protein stability index read?
Its protein stability index is 2.59.

Which protein stability index does the source give for RFSHQCVVDKDKRNQCRYCRLKKC [R4H] here?
Its protein stability index is 3.57.

For RFSFQCVVDKDKRNQCRYCRLKKC [R4F], which protein stability index is on record?
Its protein stability index is 1.9.

With RFSIQCVVDKDKRNQCRYCRLKKC [R4I] as the variant, how does the protein stability index read?
Its protein stability index is 1.85.

Which protein stability index does the source give for RFSTQCVVDKDKRNQCRYCRLKKC [R4T] here?
Its protein stability index is 1.62.

With RFSNQCVVDKDKRNQCRYCRLKKC [R4N] as the variant, how does the protein stability index read?
The protein stability index was 2.53.

Which protein stability index does the source give for RFSKQCVVDKDKRNQCRYCRLKKC [R4K] here?
The protein stability index was 2.58.

For RFSLQCVVDKDKRNQCRYCRLKKC [R4L], which protein stability index is on record?
Its protein stability index is 1.79.

Which protein stability index does the source give for RFGRQCVVDKDKRNQCRYCRLKKC [S3G] here?
Its protein stability index is 2.34.

With RFIRQCVVDKDKRNQCRYCRLKKC [S3I] as the variant, how does the protein stability index read?
The protein stability index was 2.77.

For RFNRQCVVDKDKRNQCRYCRLKKC [S3N], which protein stability index is on record?
The protein stability index was 2.76.

Which protein stability index does the source give for RFVRQCVVDKDKRNQCRYCRLKKC [S3V] here?
Its protein stability index is 2.17.

Which protein stability index does the source give for RFERQCVVDKDKRNQCRYCRLKKC [S3E] here?
The protein stability index was 3.07.

With RFQRQCVVDKDKRNQCRYCRLKKC [S3Q] as the variant, how does the protein stability index read?
The protein stability index was 2.5.

With RFLRQCVVDKDKRNQCRYCRLKKC [S3L] as the variant, how does the protein stability index read?
Its protein stability index is 2.08.

For RFYRQCVVDKDKRNQCRYCRLKKC [S3Y], which protein stability index is on record?
Its protein stability index is 2.95.

For RFWRQCVVDKDKRNQCRYCRLKKC [S3W], which protein stability index is on record?
The protein stability index was 1.52.

With RFKRQCVVDKDKRNQCRYCRLKKC [S3K] as the variant, how does the protein stability index read?
Its protein stability index is 3.33.

For RFHRQCVVDKDKRNQCRYCRLKKC [S3H], which protein stability index is on record?
The protein stability index was 2.7.

Which protein stability index does the source give for RFDRQCVVDKDKRNQCRYCRLKKC [S3D] here?
Its protein stability index is 2.58.

Which protein stability index does the source give for RFPRQCVVDKDKRNQCRYCRLKKC [S3P] here?
The protein stability index was 3.26.

With RFFRQCVVDKDKRNQCRYCRLKKC [S3F] as the variant, how does the protein stability index read?
Its protein stability index is 1.91.

For RFTRQCVVDKDKRNQCRYCRLKKC [S3T], which protein stability index is on record?
The protein stability index was 2.67.

With RFMRQCVVDKDKRNQCRYCRLKKC [S3M] as the variant, how does the protein stability index read?
Its protein stability index is 2.33.

For RFARQCVVDKDKRNQCRYCRLKKC [S3A], which protein stability index is on record?
The protein stability index was 2.59.

With RFRRQCVVDKDKRNQCRYCRLKKC [S3R] as the variant, how does the protein stability index read?
The protein stability index was 3.1.

With RFCRQCVVDKDKRNQCRYCRLKKC [S3C] as the variant, how does the protein stability index read?
The protein stability index was 3.62.

For RFSRQCVFDKDKRNQCRYCRLKKC [V8F], which protein stability index is on record?
Its protein stability index is 2.38.

Which protein stability index does the source give for RFSRQCVNDKDKRNQCRYCRLKKC [V8N] here?
The protein stability index was 1.86.

With RFSRQCVIDKDKRNQCRYCRLKKC [V8I] as the variant, how does the protein stability index read?
The protein stability index was 2.9.

With RFSRQCVQDKDKRNQCRYCRLKKC [V8Q] as the variant, how does the protein stability index read?
The protein stability index was 2.66.

With RFSRQCVYDKDKRNQCRYCRLKKC [V8Y] as the variant, how does the protein stability index read?
Its protein stability index is 2.98.

Which protein stability index does the source give for RFSRQCVMDKDKRNQCRYCRLKKC [V8M] here?
Its protein stability index is 2.56.

Which protein stability index does the source give for RFSRQCVKDKDKRNQCRYCRLKKC [V8K] here?
Its protein stability index is 2.86.

Which protein stability index does the source give for RFSRQCVADKDKRNQCRYCRLKKC [V8A] here?
Its protein stability index is 2.

Which protein stability index does the source give for RFSRQCVWDKDKRNQCRYCRLKKC [V8W] here?
Its protein stability index is 2.4.

Which protein stability index does the source give for RFSRQCVPDKDKRNQCRYCRLKKC [V8P] here?
Its protein stability index is 2.38.

With RFSRQCVEDKDKRNQCRYCRLKKC [V8E] as the variant, how does the protein stability index read?
Its protein stability index is 2.19.

With RFSRQCVDDKDKRNQCRYCRLKKC [V8D] as the variant, how does the protein stability index read?
The protein stability index was 2.8.

Which protein stability index does the source give for RFSRQCVSDKDKRNQCRYCRLKKC [V8S] here?
The protein stability index was 2.48.

For RFSRQCVCDKDKRNQCRYCRLKKC [V8C], which protein stability index is on record?
The protein stability index was 3.21.

Which protein stability index does the source give for RFSRQCVRDKDKRNQCRYCRLKKC [V8R] here?
The protein stability index was 3.24.

With RFSRQCVTDKDKRNQCRYCRLKKC [V8T] as the variant, how does the protein stability index read?
Its protein stability index is 2.6.

Which protein stability index does the source give for RFSRQCVHDKDKRNQCRYCRLKKC [V8H] here?
Its protein stability index is 3.87.

With TFSRQCVVDKDKRNQCRYCRLKKC [R1T] as the variant, how does the protein stability index read?
The protein stability index was 2.24.

For EFSRQCVVDKDKRNQCRYCRLKKC [R1E], which protein stability index is on record?
The protein stability index was 3.43.

Which protein stability index does the source give for FFSRQCVVDKDKRNQCRYCRLKKC [R1F] here?
Its protein stability index is 1.94.

Which protein stability index does the source give for IFSRQCVVDKDKRNQCRYCRLKKC [R1I] here?
Its protein stability index is 2.65.

Which protein stability index does the source give for CFSRQCVVDKDKRNQCRYCRLKKC [R1C] here?
The protein stability index was 2.95.

Which protein stability index does the source give for QFSRQCVVDKDKRNQCRYCRLKKC [R1Q] here?
The protein stability index was 2.66.

Which protein stability index does the source give for VFSRQCVVDKDKRNQCRYCRLKKC [R1V] here?
Its protein stability index is 1.53.

With KFSRQCVVDKDKRNQCRYCRLKKC [R1K] as the variant, how does the protein stability index read?
The protein stability index was 2.4.

Which protein stability index does the source give for LFSRQCVVDKDKRNQCRYCRLKKC [R1L] here?
The protein stability index was 2.31.

With SFSRQCVVDKDKRNQCRYCRLKKC [R1S] as the variant, how does the protein stability index read?
The protein stability index was 2.18.

Which protein stability index does the source give for DFSRQCVVDKDKRNQCRYCRLKKC [R1D] here?
The protein stability index was 2.59.

With HFSRQCVVDKDKRNQCRYCRLKKC [R1H] as the variant, how does the protein stability index read?
Its protein stability index is 3.54.

For PFSRQCVVDKDKRNQCRYCRLKKC [R1P], which protein stability index is on record?
The protein stability index was 2.5.

With NFSRQCVVDKDKRNQCRYCRLKKC [R1N] as the variant, how does the protein stability index read?
The protein stability index was 2.44.

For MFSRQCVVDKDKRNQCRYCRLKKC [R1M], which protein stability index is on record?
Its protein stability index is 1.54.

Which protein stability index does the source give for YFSRQCVVDKDKRNQCRYCRLKKC [R1Y] here?
The protein stability index was 2.19.

Which protein stability index does the source give for AFSRQCVVDKDKRNQCRYCRLKKC [R1A] here?
The protein stability index was 2.4.

For WFSRQCVVDKDKRNQCRYCRLKKC [R1W], which protein stability index is on record?
Its protein stability index is 2.21.

With GFSRQCVVDKDKRNQCRYCRLKKC [R1G] as the variant, how does the protein stability index read?
Its protein stability index is 2.64.

Which protein stability index does the source give for RISRQCVVDKDKRNQCRYCRLKKC [F2I] here?
Its protein stability index is 2.39.

With RQSRQCVVDKDKRNQCRYCRLKKC [F2Q] as the variant, how does the protein stability index read?
Its protein stability index is 3.63.

For RMSRQCVVDKDKRNQCRYCRLKKC [F2M], which protein stability index is on record?
Its protein stability index is 2.89.

Which protein stability index does the source give for RLSRQCVVDKDKRNQCRYCRLKKC [F2L] here?
The protein stability index was 3.06.

For RKSRQCVVDKDKRNQCRYCRLKKC [F2K], which protein stability index is on record?
Its protein stability index is 3.31.

For RRSRQCVVDKDKRNQCRYCRLKKC [F2R], which protein stability index is on record?
Its protein stability index is 3.37.

With RASRQCVVDKDKRNQCRYCRLKKC [F2A] as the variant, how does the protein stability index read?
Its protein stability index is 3.77.

With RWSRQCVVDKDKRNQCRYCRLKKC [F2W] as the variant, how does the protein stability index read?
The protein stability index was 2.37.

Which protein stability index does the source give for RVSRQCVVDKDKRNQCRYCRLKKC [F2V] here?
The protein stability index was 2.37.

Which protein stability index does the source give for RHSRQCVVDKDKRNQCRYCRLKKC [F2H] here?
The protein stability index was 3.34.

Which protein stability index does the source give for RTSRQCVVDKDKRNQCRYCRLKKC [F2T] here?
Its protein stability index is 3.08.

With RPSRQCVVDKDKRNQCRYCRLKKC [F2P] as the variant, how does the protein stability index read?
Its protein stability index is 3.45.

For RSSRQCVVDKDKRNQCRYCRLKKC [F2S], which protein stability index is on record?
The protein stability index was 4.23.

Which protein stability index does the source give for RYSRQCVVDKDKRNQCRYCRLKKC [F2Y] here?
The protein stability index was 3.32.

With RDSRQCVVDKDKRNQCRYCRLKKC [F2D] as the variant, how does the protein stability index read?
Its protein stability index is 3.45.

With RGSRQCVVDKDKRNQCRYCRLKKC [F2G] as the variant, how does the protein stability index read?
The protein stability index was 2.96.

For RNSRQCVVDKDKRNQCRYCRLKKC [F2N], which protein stability index is on record?
Its protein stability index is 3.39.

Which protein stability index does the source give for RESRQCVVDKDKRNQCRYCRLKKC [F2E] here?
Its protein stability index is 3.6.
